Experimental data reported in the nanobody polyreactivity screen of Harvey et al. (2022).

Experiment: yeast display, Sf9 membrane polyspecificity reagent, FACS + sequencing; frameworks hold sequencing errors
How it was run: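 Polyreactivity labels are assigned by the sorting gate from which each nanobody was recovered. The gates were low and high (top ~1%), set on anti-HA fluorescence for expression and streptavidin fluorescence for reagent binding. Before sorting, galactose-induced (36–48 hours) yeast display cells were stained for 1 hour at 4 °C with 10% biotinylated, detergent-solubilized Sf9 membrane reagent.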

| Sequence | polyreactivity (PSR sort gate) |
| --- | --- |
| QVQLVESGGGLVQAGGSLRLSCAASGRTFRYYAMGWYRQAPGKERELVADISWSGGRTSYADSVKGRFTISRDNAKNTVYLQMNSLKPEDTAVYYCAKVLYYPSHVYWGQGTQVTVSS | high polyreactivity |
| QVQLVESGGGLVQAGGSLRLSCAASGRTFRYYAMGWYRQAPGKERELVASISSSGSTNYADSVKGRFTISRDNAKNTVYLQMNSLKPEDTAVYYCAAESRYPFIYEYWGQGTQVTVSS | low polyreactivity |
| QVQLVESGGGLVQAGGSLRLSCAASGRTFRYYAMGWYRQAPGKERELVATISSGGSTNYADSVKGRFTISRDNAKNTVYLQMNSLKPEDTAVYYCARYSYRGTNVRYDYWGQGTQVTVSS | high polyreactivity |
| QVQLVESGGGLVQAGGSLRLSCAASGRTFRYYDMGRYRQAPGKERELVAAISSSGDRTYYADSVKGRFTISRDNAKNTVYLQMNSLKPEDTAVYYCAADRGARGDYWGQGTQVTVSS | high polyreactivity |
| QVQLVESGGGLVQAGGSLRLSCAASGRTFRYYDMGWYRQAPGKEREFVAAITWRGGSTYYADSVKGRFTISRDYAKNTVYLQMNSLTPEDTAVYYCATDSLRLYGGKRDLYYWGQGTQVTVSS | low polyreactivity |
| QVQLVESGGGLVQAGGSLRLSCAASGRTFRYYTMGWYRQAPGKEREFVAAISSTGGTYYADSVKGRFTISRDNAKNTVYFQMNSLKPEDTAVYYCAAYRWGILSAYYYAWYGYWGQGTQVTVSS | low polyreactivity |
| QVQLVESGGGLVQAGGSLRLSCAASGRTFSAYAMGWNRQAPGKEREMVAAISSTGRTKYADSVKGRFTISRDNAKNSVYLQMNSLKPEDTAVYYCAARGYYVSPYTYGYWGQGTQVTVSS | high polyreactivity |
| QVQLVESGGGLVQAGGSLRLSCAASGRTFSAYAMGWYRQAPGKERELVAAISRSGGSTYYADSVKGRFTISRDNAKNTVYLQMNSLKPEDTAVYYCAAKGGSGLYYWGQGTQVTVSS | high polyreactivity |
| QVQLVESGGGLVQAGGSLRLSCAASGRTFSAYAMGWYRQAPGKERELVARITSVDSTNYADSVKRRFTISRDNAKNSVYLQINSLKPEDTAVYYCNATFGYPFVDYDDYWGQGTQVTVSS | low polyreactivity |
| QVQLVESGGGLVQAGGSLRLSCAASGRTFSDYAMGWYRQAPGKERELVAAITSSSGTTYYADSVKGRFTISRDNAKNTVYFQMNSLKPEDTAVYYCAAGHPYSLSERYNYWGQGTQVTVSS | low polyreactivity |
| QVQLVESGGGLVQAGGSLRLSCAASGRTFSFYAMGWYRQAPGNERELVASMSRSGASTYYADSVKGRFTISRDNAKNTVYLQMNSLKPEDTAVYYCAAEWGRRYIYYYWGQGTQVTVSS | high polyreactivity |
| QVQLVESGGGLVQAGGSLRLSCAASGRTFSGNTMGWYRQAPGKEREFVATISQSGTITSYADSVKGRFTISRDNAKNTVYLQMNSLKPEDTAVYYCAARAVYYSSRGWITRFDYWGQGTQVTVSS | high polyreactivity |
| QVQLVESGGGLVQAGGSLRLSCAASGRTFSGNTMVWYRQAPGKERELVAAITGRGGSTYYADSVKGRFTISRDNAKNTVYLQMNSKKPEDTAVYYCAALRYTFAGRFDYWGQGTQVTVSS | high polyreactivity |
| QVQLVESGGGLVQAGGSLRLSCAASGRTFSGYAMGWYRQAPGKERELVAAIRLSGGSTYYADSVKGRFTISRDNAKNTVYLQMNSLKPEVTAVYYCARYHGFGYDYWGQGTQGTVSS | low polyreactivity |
| QVQLVESGGGLVQAGGSLRLSCAASGRTFSGYAMGWYRQAPGKERELVAAITGRGGSTYYADSVKGRFTISRDNAKNTVYLQMNSLKPEDTAVYYCAAYGIWYRVDYWGQGTQVTVSS | high polyreactivity |
| QVQLVESGGGLVQAGGSLRLSCAASGRTFSGYAMGWYRQAPGKERELVAGITWNGGRTYYADSVKGRFTISRDNAKNTVYLQMNILKPDDTAVYYCYKLGAVYPKYGYWGQGTQVTVSS | high polyreactivity |
| QVQLVESGGGLVQAGGSLRLSCAASGRTFSGYAMGWYRQAPGTERELVAAIDRGDGTNYADSVKGRFTISRDNAKNTVYLQMNSLKPEDTAVYYCAADYSYGSTSHTYTGFDYWGQGTQVTVSS | low polyreactivity |
| QVQLVESGGGLVQAGGSLRLSCAASGRTFSGYPMGWYRPAPGKERELVAAISWSGGSTYYADSVKGRFTISRDNAKNTVYLQMNSLKPEDTAVYYCAAYTYSFRANHDYWGQGTQVTVSS | high polyreactivity |
| QVQLVESGGGLVQAGGSLRLSCAASGRTFSHYAMGWYRQAPGKERELVAGISSGSRTNYADSVKGRFTISRDNAKNTVYLQMNSLKPEDTAVYYCAARTKYLKGGYWGQGTQVTVSS | high polyreactivity |
| QVQLVESGGGLVQAGGSLRLSCAASGRTFSIYAMGLYRQAPGKERELVAAISNGGRTKYADSVKGRFTISRDNAKNTVYLQMNSLKPEDTAVYYCAAETWYVAYGYWGQGTQVTVSS | high polyreactivity |
| QVQLVESGGGLVQAGGSLRLSCAASGRTFSKYAMGWDRPAPGKERELVAGISRSGGSTYYADSVKGRFTISRDNAKNTVYLQMNSLKPEDTAVYYCAKRSVGGTGYYWGQGTQVTVSS | high polyreactivity |

| Sequence | polyreactivity (PSR sort gate) |
| --- | --- |
| QVQLVESGGGLVQAGGSLRLSCAASGRTFSKYAMGWYRQAPGKERELVAAIRWSGGSTYYADSVKGRFTISRDNAKNTVYLQMNSLKPEDTAVYYSAKRSRGLKFDYWGLGTQVTVSS | high polyreactivity |
| QVQLVESGGGLVQAGGSLRLSCAASGRTFSNYAMGWYRQAPGKERELVAAISQRGGSTYYADSVKGRFTISRDNAKNTVYLLMNSLKPEDTAVYYCNARQTTATGGTGNYWGQGTQVTVSS | high polyreactivity |
| QVQLVESGGGLVQAGGSLRLSCAASGRTFSNYAMGWYRQAPGKERELVAAISQRGGSTYYADSVKGRFTISRDNAKNTVYLQMNSLKPEDTAVYYCNARQTTATVGTGNYWGQGTQVTVSS | high polyreactivity |
| QVQLVESGGGLVQAGGSLRLSCAASGRTFSPYMGWSRQAPGKERELVAAISKSGGRTYYADSVKWSFTISRDNAKNTVYLQMNSLQPEDTAVYYCATSGNNYYYALYGYWVQGTQVTVSS | low polyreactivity |
| QVQLVESGGGLVQAGGSLRLSCAASGRTFSPYPMGWYRQAPGKERELGAAINWTGGSTYYADSVKGRFTISRDNAKNTVYLQMNSLKPEVTAVYYCNADWWYGYDYWGQGTQVTVSS | low polyreactivity |
| QVQLVESGGGLVQAGGSLRLSCAASGRTFSRYAMGWYRQAPGKERELVAAISWSGGTTHYADSVKGRFTISRDNAKNTVYLQMNSLKPEDTAVYYCNKLRQIEFWGQGTQVTVSS | high polyreactivity |
| QVQLVESGGGLVQAGGSLRLSCAASGRTFSTYAMGWYRQAPGKERELVAAIDSGGGSTYYADSVKGRFTISRDNAKNTVYLQMNSLKPEDTAVYYCARDHYAPLARLRYDYWGQGTQVTVSS | low polyreactivity |
| QVQLVESGGGLVQAGGSLRLSCAASGRTFSTYAMGWYRQAPGKERELVAAITRRGGSTYYADSVKGRFTISRDNAKNTVYLQMNSLKPEDTAVYYCARENPGDSYYDYWGQGTQVTVSS | low polyreactivity |
| QVQLVESGGGLVQAGGSLRLSCAASGRTFSTYVMGWYRQAPGKEREFVAAISTGGGSTYYADSVKGRFTISRDNAKNTVYLQMNSLKPEDTAVYYCAARLKWGWPTYDYWGQGTQVTVSS | high polyreactivity |
| QVQLVESGGGLVQAGGSLRLSCAASGRTFSVNAMGWYREAPGKEREFVAGISYSGNTYYADSVKGRVTISRDNAKKTAYLQMNSLKPEDTAVYYCAARRGYNDGYWGQGTQVTVSS | high polyreactivity |
| QVQLVESGGGLVQAGGSLRLSCAASGRTFSVNAMGWYRQAPGKERELVAAISWDGGSTYYADSVKGRFTISRDTAKNTVYLQMNSLKPEDTAVYYCNKDLYYAYDYWGQGTQVTVSS | low polyreactivity |
| QVQLVESGGGLVQAGGSLRLSCAASGRTFSVNAMGWYRQAPGKERELVATITWSGSSTSYADSVKGRFTISRDNAKNSVDLQMNSLTPEDTAVYYCAADLWTLIYLTDTYGDWGQGTQVTVSS | low polyreactivity |
| QVQLVESGGGLVQAGGSLRLSCAASGRTFSVNDMGWYRQAPGKERELVAAISFSGGSTYYADSVKGRFTISRDNAKNTVYLQMNSLKPEDTAVYYCAAEAYPVRRLNLPGYDYWGQGTQVTVSS | high polyreactivity |
| QVQLVESGGGLVQAGGSLRLSCAASGRTFSVYAMGWYRQAPGKERELVAVIRGRGGRTYYADSVKGRFTISRDNAKNTVYLQMNSLKPEDTAVYYCNAVGQIVYGKQYDYWGQGTQVTVSS | high polyreactivity |
| QVQLVESGGGLVQAGGSLRLSCAASGRTFSVYTMGWYRQAPGKERELVAVISSGGGTDYADSVKGRFTISRDNAKNTVYLQMNSLKPEDTAVYYCAAELRYYLYDVVYIVTYDYWGQGTQVTVSS | low polyreactivity |
| QVQLVESGGGLVQAGGSLRLSCAASGRTFSWNTMGWYRQAPGKEMELVATITWSGTSTYYADSVKGRFTISRDNAKNTDYLQMNSLKPEDTAVYYCAKRRLFPYTISRYDYWGQGTQVTVSS | high polyreactivity |
| QVQLVESGGGLVQAGGSLRLSCAASGRTFSWYAMGWYRPAPGQERELVAAITYSGGNTYYADSVKGRFTISRDNAKNTVYLQMNSLKPEDTAVYYCAKYGVTGQGSWSQRMGYWGQGTQVTVSS | high polyreactivity |
| QVQLVESGGGLVQAGGSLRLSCAASGRTFSWYAMGWYRQAPGKERELVAAITRDGGNTYYADSVKGRFTISRDNAKNTVYLQMNSLKPEDTAVYYCAAAPTTGKRPGYYYWGQGTQVTVSS | high polyreactivity |
| QVQLVESGGGLVQAGGSLRLSCAASGRTFSYYAKGWYRQAPGKESELVSAIRVSGGITYYADSVKGRFTISRDNAKNTVYLQMNTLKPEDTAVYYCNAGVDFIGGRYLTYVYWGQGTQVTVSW | low polyreactivity |
| QVQLVESGGGLVQAGGSLRLSCAASGRTFSYYAMGWYIQAPGKERELVAAINSSGGRTYYADSVKGRFTISRDNAKNTVYLQMNSLKPEDTAVYYCAARSYSTSSHHGYWGQGTQVTVSS | high polyreactivity |
